Experimental data taken from US20230174955A1.

B1: secreted mimi-virus P4H from Pichia (vector MMV-644; strains PP765, PP766, PP767), with 6X His tag at the C-terminus (protein)
chain: VLSKSCVSHFRNVGSLNSRDVNLKDDFSYANIDDPYNKPFVLNNLINPTKCQEIMQFANGKLFDSQVLSGTDKNIRNSQQMWISKNNPMVKPIFENICRQFNVPFDNAEDLQVVRYLPNQYYNEHHDSCCDSSKQCSEFIERGGQRILTVLIYLNNEFSDGHTYFPNLNQKFKPKTGDALVFYPLANNSNKCHPYSLHAGMPVTSGEKWIANLWFRERKFSHHHHHH

How the values were obtained:
[1] = target: full length collagen (with foldON), expressed in Pichia strain PP654 (vector MMV-398); assay: cell-based or functional assay
[2] = target: collagen substrate of the in-vitro hydroxylation reaction with purified secreted mimiP4H
[3] = target: purified collagen derived from strain PP685, added to fermentation supernatant
[4] = target: collagen secreted by strains PP766 and PP767 along with mimiP4H

Molecule | hydroxylation level of collagen (mass spec of gel band; in vivo, PP654 in fermenters) [1] | %HyP, colorimetric assay, in-vitro hydroxylation reaction [2] | hydroxylation of added purified collagen in unpurified fermentation supernatant [3] | hydroxylation of secreted collagen in fermentation supernatant [4]
mimi-virus P4H (monomeric prolyl 4-hydroxylase), intracellular, expressed in Pichia strain PP654 from vector MMV-580 (enzyme) | 17% | – | – | –
B1 | – | Ni-NTA purified mimiP4H showed 24% hydroxylation | All reactions showed an increase in the hydroxylation over the pre-reaction levels (~3%) | An increase in hydroxylation was observed for both the secreted collagen and added purified collagen
